Measured values taken from article PMC10967385, “Essential role of obscurin kinase-1 in cardiomyocyte coupling via N-cadherin phosphorylation” (JCI Insight, 2024).
Numbering of substitutions follows the chain as printed. Values belong to the binder of their own block, whether it stands above or below them.

Molecular target: T1, MBP-p120-catenin(311-747), middle portion of p120-catenin containing armadillo domains 1-8 fused to maltose … (UniProt P30999 311-747)
T1 construct: p120-catenin, middle portion containing armadillo domains 1-8, aa 311-747; source: recombinant protein (source in Supplemental Methods)
T1 sequence (looked up): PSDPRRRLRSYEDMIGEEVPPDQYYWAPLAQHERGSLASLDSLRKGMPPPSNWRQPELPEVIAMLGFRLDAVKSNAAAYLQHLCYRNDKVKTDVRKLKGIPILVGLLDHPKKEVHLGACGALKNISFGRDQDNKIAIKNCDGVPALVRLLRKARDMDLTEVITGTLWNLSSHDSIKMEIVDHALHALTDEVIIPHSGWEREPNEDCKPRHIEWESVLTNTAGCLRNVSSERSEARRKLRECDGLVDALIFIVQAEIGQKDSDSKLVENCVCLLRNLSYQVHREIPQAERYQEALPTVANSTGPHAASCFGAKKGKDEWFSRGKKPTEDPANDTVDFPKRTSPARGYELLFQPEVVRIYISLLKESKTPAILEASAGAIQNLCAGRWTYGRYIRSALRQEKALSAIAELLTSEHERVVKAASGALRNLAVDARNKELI
Test: ITC; VP-ITC, 37°C, PBS pH 7.4; GST-Ncad ligands (80-100 μM) titrated into 10 μM MBP-p120-catenin(311-747) in the sample chamber; control titrations subtracted; 1-site binding model; average of 3 replicates; number of sites fixed to 1 for the SE ligand
Settings: both partners purified

Kd: 1.25 µM
B1: GST-Ncad(746-906)-WT, recombinant GST-tagged cytoplasmic domain of N-cadherin (domain or fragment, mouse, UniProt P15116 746-906, looked up)
chain: MKRRDKERQAKQLLIDPEDDVRDNILKYDEEGGGEEDQDYDLSQLQQPDTVEPDAIKPVGIRRLDERPIHAEPQYPVRSAAPHPGDIGDFINEGLKAADNDPTAPPYDSLLVFDYEGSGSTAGSLSSLNSSSSGGDQDYDYLNDWGPRFKKLADMYGGGDD
notes: source: recombinant protein (source in Supplemental Methods)

Kd: 197 µM
B2: GST-Ncad(746-906)-SE, phosphomimic Ser-788-Glu GST-tagged cytoplasmic domain of N-cadherin (domain or fragment, mouse, UniProt P15116 746-906, looked up)
chain: B1 chain with S43E
notes: as for B1
